# Test results from patent US20020098537.
# T1: novel protein having inhibitory activity on the protease activity of HGF activator (HAI-I), purified from MKN45 cell culture supernatant
# T1 sequence (O43278 36-529, looked up): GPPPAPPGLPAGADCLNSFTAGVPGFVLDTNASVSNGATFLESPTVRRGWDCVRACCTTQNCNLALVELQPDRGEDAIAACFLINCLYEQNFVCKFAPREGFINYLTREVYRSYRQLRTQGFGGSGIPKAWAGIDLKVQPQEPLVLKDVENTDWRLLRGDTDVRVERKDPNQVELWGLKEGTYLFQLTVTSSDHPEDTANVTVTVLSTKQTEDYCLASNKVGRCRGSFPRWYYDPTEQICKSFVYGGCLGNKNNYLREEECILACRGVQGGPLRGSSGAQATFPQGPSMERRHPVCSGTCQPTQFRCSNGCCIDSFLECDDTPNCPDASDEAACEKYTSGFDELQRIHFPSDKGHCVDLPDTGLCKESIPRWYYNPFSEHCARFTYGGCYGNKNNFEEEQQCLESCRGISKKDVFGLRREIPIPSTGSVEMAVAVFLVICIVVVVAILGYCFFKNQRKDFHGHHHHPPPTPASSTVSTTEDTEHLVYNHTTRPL
# B1: serum-derived hepatocyte growth factor activator (HGF activator) (protein)
# chain: VQLSPDLLATLPEPASPGRQACGRRHKKRTFLRPRIIGGSSSLPGSHPWLAAIYIGDSFCAGSLVHTCWVVSAAHCFSHSPPRDSVSVVLGQHFFNRTTDVTQTFGIEKYIPYTLYSVFNPSDHDLVLIRLKKKGDRCATRSQFVQPICLPEPGSTFPAGHKCQIAGWGHLDENVSGYSSSLREALVPLVADHKCSSPEVYGADISPNMLCAGYFDCKSDACQGDSGGPLACEKNGVAYLYGIISWGDGCGRLHKPGVYTRVANYVDWINDRIRPPRRLVAPS
# Key:
# [1] = molecular target: T1, novel protein having inhibitory …
# [2] = molecular target: single chain HGF (hepatocyte growth factor), P14210
# Chain of single chain HGF (hepatocyte growth factor), P14210 (P14210 32-728): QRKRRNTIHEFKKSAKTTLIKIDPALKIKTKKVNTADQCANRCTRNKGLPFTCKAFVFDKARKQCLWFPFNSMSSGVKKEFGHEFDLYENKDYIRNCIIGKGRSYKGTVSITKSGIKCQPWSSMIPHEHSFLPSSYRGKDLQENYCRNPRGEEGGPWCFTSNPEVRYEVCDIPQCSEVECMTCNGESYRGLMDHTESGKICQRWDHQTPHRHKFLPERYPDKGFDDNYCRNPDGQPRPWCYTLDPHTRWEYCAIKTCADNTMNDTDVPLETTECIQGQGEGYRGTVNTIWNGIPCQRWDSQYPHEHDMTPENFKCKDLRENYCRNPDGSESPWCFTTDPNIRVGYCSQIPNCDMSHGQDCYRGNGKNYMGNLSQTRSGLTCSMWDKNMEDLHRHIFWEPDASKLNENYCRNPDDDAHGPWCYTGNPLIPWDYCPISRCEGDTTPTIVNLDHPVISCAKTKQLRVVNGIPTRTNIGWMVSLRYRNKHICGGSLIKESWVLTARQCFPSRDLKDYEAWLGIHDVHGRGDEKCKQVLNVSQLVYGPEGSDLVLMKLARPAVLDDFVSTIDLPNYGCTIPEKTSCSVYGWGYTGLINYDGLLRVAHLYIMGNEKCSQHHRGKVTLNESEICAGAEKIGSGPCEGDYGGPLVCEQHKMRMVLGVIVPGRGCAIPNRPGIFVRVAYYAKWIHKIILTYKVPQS
protein,measurement,setting,value
B1,"conversion of single chain HGF to double chain HGF by HGF activator (SDS-PAGE under reducing conditions, CBB staining); 10 ng protein, 5 ng HGF activator, 10 ug single chain HGF",[1],Addition of the protein resulted in suppression of the activity of HGF activator converting single chain HGF to double chain HGF.
same,"conversion of single chain HGF to double chain HGF (SDS-PAGE under reducing conditions, CBB staining)",[2],the activity of HGF activator converting single chain HGF to double chain HGF
